In patent US20160159919A1 (Chugai, published 2016):
Substitutions are numbered along the chain they refer to.

B1: H66-G1d/LB-k (antibody, human IgG1, kappa, V domains shown)
VH: QDQLVQSGAEVKKPGASVKVSCKASGFNIKDTYIQWVRQAPGQGLEWMGRIDPLVGNTKYVPKFQGRVTITADTSTNTAYMELSSLRSEDTAVYYCVRSGTLFDFWGQGTLVTVSS
VL: DIQMTQSPSSLSASVGDRVTITCKASQDIHKYIAWYQQKPGQAPRLLIQYTSTLQPGVPSRFSGSGSGTDYTFTISSLQPEDIATYYCLQYDNLRTFGGGTKVEIKR
notes: also called H66-G1/LB-k
B2: H57-G1d/LB-k (antibody, human IgG1, kappa, V domains shown)
VH: B1 VH with V55T
VL: B1 VL
notes: also called H57-G1/LB-k
B3: H31-G1d/LB-k (antibody, human IgG1, kappa, V domains shown)
VH: B1 VH with V55N, P62E, Q65E
VL: B1 VL
B4: H87-G1d/L21-k (antibody, human IgG1, kappa, V domains shown)
VH: B1 VH with V55T, N57Q, V61Q, P62E, Q65E, L102S
VL: B1 VL with K24Q, K106E
B5: H65-G1d/LB-k (antibody, human IgG1, kappa, V domains shown)
VH: B1 VH with V55F
VL: B1 VL
notes: also called H65-G1/LB-k
B6: H71-G1d/LB-k (antibody, human IgG1, kappa, V domains shown)
VH: B1 VH with D31A, V55N
VL: B1 VL
notes: also called H71-G1/LB-k
B7: HY-G1d/L30-k (antibody, human IgG1, kappa, V domains shown)
VH: B1 VH with V55N
VL: B1 VL with D92E
notes: the text names only HY-G1d/L32-k as obtained; also called HY-G1/L30-k
B8: H61-G1d/LB-k (antibody, human IgG1, kappa, V domains shown)
VH: B1 VH with V55K
VL: B1 VL
notes: also called H61-G1/LB-k
B9: H41-G1d/LB-k (antibody, human IgG1, kappa, V domains shown)
VH: B1 VH with V55N, V61H
VL: B1 VL
B10: H40-G1d/LB-k (antibody, human IgG1, kappa, V domains shown)
VH: B1 VH with V55N, N57Q
VL: B1 VL
notes: also called H40-G1/LB-k
B11: H42-G1d/LB-k (antibody, human IgG1, kappa, V domains shown)
VH: B1 VH with V55N, V61K
VL: B1 VL
B12: H45-G1d/LB-k (antibody, human IgG1, kappa, V domains shown)
VH: B1 VH with V55N, V61T
VL: B1 VL
B13: HY-G1d/L32-k (antibody, human IgG1, kappa, V domains shown)
VH: B1 VH with V55N
VL: B1 VL with D92E, N93Q
notes: also called HY-G1/L32-k
B14: HY-G1d/L12-k (antibody, human IgG1, kappa, V domains shown)
VH: B1 VH with V55N
VL: B1 VL with Q55E
B15: HY-G1d/L2-k (antibody, human IgG1, kappa, V domains shown)
VH: B1 VH with V55N
VL: B1 VL with K24S
B16: H44-G1d/LB-k (antibody, human IgG1, kappa, V domains shown)
VH: B1 VH with V55N, V61S
VL: B1 VL
B17: H87-G1d/L37-k (antibody, human IgG1, kappa, V domains shown)
VH: B1 VH with V55T, N57Q, V61Q, P62E, Q65E, L102S
VL: B1 VL with K24Q, F73L, I83F
B18: H43-G1d/LB-k (antibody, human IgG1, kappa, V domains shown)
VH: B1 VH with V55N, V61R
VL: B1 VL
B19: H67-G1d/LB-k (antibody, human IgG1, kappa, V domains shown)
VH: B1 VH with V55L
VL: B1 VL
notes: also called H67-G1/LB-k
B20: H111-G1d/L47-k (antibody, human IgG1, kappa, V domains shown)
VH: B1 VH with V55R, V61R, P62E, Q65E
VL: B1 VL with N93R
B21: H116-G1d/LB-k (antibody, human IgG1, kappa, V domains shown)
VH: B1 VH with V55R, G56R, V61R, P62E, Q65E
VL: B1 VL
B22: H111-G1d/L48-k (antibody, human IgG1, kappa, V domains shown)
VH: B1 VH with V55R, V61R, P62E, Q65E
VL: B1 VL with L94R
B23: H131-G1d/LB-k (antibody, human IgG1, kappa, V domains shown)
VH: B1 VH with V55R, G56R, V61R, P62E, Q65E, G100R
VL: B1 VL
B24: H132-G1d/LB-k (antibody, human IgG1, kappa, V domains shown)
VH: B1 VH with V55R, G56R, V61R, P62E, Q65E, T101R
VL: B1 VL
B25: H112-G1d/LB-k (antibody, human IgG1, kappa, V domains shown)
VH: B1 VH with I51R, V55R, V61R, P62E, Q65E
VL: B1 VL
B26: H119-G1d/LB-k (antibody, human IgG1, kappa, V domains shown)
VH: B1 VH with V55R, K59R, V61R, P62E, Q65E
VL: B1 VL
B27: H117-G1d/LB-k (antibody, human IgG1, kappa, V domains shown)
VH: B1 VH with V55R, N57R, V61R, P62E, Q65E
VL: B1 VL
B28: H121-G1d/LB-k (antibody, human IgG1, kappa, V domains shown)
VH: B1 VH with V55R, V61R, P62E, K63R, Q65E
VL: B1 VL
B29: H111-G1d/LB-k (antibody, human IgG1, kappa, V domains shown)
VH: B1 VH with V55R, V61R, P62E, Q65E
VL: B1 VL
B30: H124-G1d/LB-k (antibody, human IgG1, kappa, V domains shown)
VH: B1 VH with Y33R, V55R, V61R, P62E, Q65E
VL: B1 VL
B31: H120-G1d/LB-k (antibody, human IgG1, kappa, V domains shown)
VH: B1 VH with V55R, Y60R, V61R, P62E, Q65E
VL: B1 VL
B32: H118-G1d/LB-k (antibody, human IgG1, kappa, V domains shown)
VH: B1 VH with V55R, T58R, V61R, P62E, Q65E
VL: B1 VL
B33: H123-G1d/LB-k (antibody, human IgG1, kappa, V domains shown)
VH: B1 VH with V55R, V61R, P62E, Q65E, G66R
VL: B1 VL

Target: T1, soluble human EREG fragment having a mature EGF domain structure (R&D Systems cat. no. 1195-EP/CF) (human, UniProt O14944 63-108)
T1 construct: bought; coated on ELISA plates; also called human epiregulin; recombinant human Epiregulin
T1 sequence (O14944 63-108 limits assumed): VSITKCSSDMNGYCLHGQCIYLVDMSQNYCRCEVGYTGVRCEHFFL
Assay: competitive ELISA on coated soluble human EREG fragment
Protocol: The soluble human EREG fragment having a mature EGF domain structure (the polypeptide of SEQ ID NO: 34 which corresponds to ⁶³Val to ¹⁰⁸Leu) was purchased from R&D Systems (cat. no. 1195-EP/CF). The soluble human EREG fragment was used to coat nunc immunoplates, and after blocking with a BSA-containing solution, the competitive binding reactivity between mouse hybridoma-derived EP27 and the purified humanized anti-EREG antibody was analyzed. Mouse hybridoma-derived EP27 and a purified humanized anti-EREG antibody were added to the plates, and after two hours of incubation, the plates were washed; and an alkaline phosphatase-labeled anti-human IgG antibody (Zymed) was added to each well of the plates and then allowed to react. Each well was washed, and then the amount of bound antibody (A405/655 detection value) was determined by addition of a test reagent, Sigma p-Nitrophenyl phosphate Tablets.

binding result | Binder
binds | B1
binds | B2
binds | B3
binds | B4
binds | B5
binds | B6
binds | B7
binds | B8
binds | B9
binds | B10
binds | B11
binds | B12
binds | B13
binds | B14
binds | B15
binds | B16
binds | B17
binds | B18
binds | B19

Target: T2, cynomolgus EREG (Biacore analyte) (cynomolgus monkey, UniProt O14944 63-108 (human entry), limits assumed)
T2 construct: also called cynomolgus monkey EREG; cEREG
T2 sequence (O14944 other isoform, or with tags, fused parts or gaps limits assumed): as the sequence (O14944 63-108 limits assumed) above, with S7N, F45Y counted along it
Assay: SPR (Biacore T100), antibody captured on Protein A, EREG as analyte; KD for monkey EREG over KD for human EREG
Protocol: The affinity and association rate constant of an anti-EREG antibody for an antigen were measured by the single-cycle kinetics method of surface plasmon resonance assay using Biacore™-T100 (GE Healthcare Japan). HBS-EP+ (GE Healthcare Japan) was used for the running buffer, and an amine coupling kit (GE Healthcare Japan) was used to covalently bond Protein A to the CM5 chip (carboxymethyl dextran-coated chip). Each anti-EREG antibody was prepared so that approximately 350 RU will be captured by Protein A. Human EREG or cynomolgus EREG used as the analyte was prepared at 0, 0.7, 1.4, 2.8, 5.6, and 11.2 nM using HBS-EP+. Measurement was carried out by first allowing Protein A to capture the antibody solution, and then at a flow rate of 30 μL/min, successively injecting each of the 0, 0.7, 1.4, 2.8, 5.6, and 11.2 nM human EREG or cynomolgus EREG solutions for three minutes to allow reaction to take place. Then, the solution was switched to HBS-EP+, and the dissociation phase was measured for 15 minutes. After completion of the dissociation phase measurement, the sensor chip was washed with 25 mM NaOH and regenerated. The measurement at zero concentration was similarly carried out by allowing Protein A to capture the antibody solution, and performing three-minute HBS-EP+ injections successively for five times to allow reaction to take place, and then switching to HBS-EP+ to measure the dissociation phase for 15 minutes. After completion of the dissociation phase measurement, the sensor chip was washed with 25 mM NaOH and regenerated. A data analysis software exclusively for Biacore, Biacore T100 Evaluation Software Version 2.0.1, was used to perform kinetic analyses to calculate the association rate constant (kₐ), dissociation rate constant (kd), and the rate constant ratio from the obtained sensorgrams. To correct for the day-to-day differences in the measurement values, FIGS. 1 to 4 and Tables 16 and 19 show ratios based on taking the value of the control sample (cH-G1/cL-k) measured on the same day as 1.

cEREG KD (nM)/hEREG KD (nM) [ratio] | Binder
12.6 | B20
6.1 | B21
8.4 | B22
4.7 | B23
4.6 | B24
16 | B25
9.8 | B26
7.9 | B27
8.3 | B28
9 | B29
20.6 | B30
9.1 | B31
7.5 | B32
8.2 | B33
